T1: human complement C1s enzyme (activated C1s) (human, UniProt P09871 16-437; P09871 438-688)
T1 sequence 1: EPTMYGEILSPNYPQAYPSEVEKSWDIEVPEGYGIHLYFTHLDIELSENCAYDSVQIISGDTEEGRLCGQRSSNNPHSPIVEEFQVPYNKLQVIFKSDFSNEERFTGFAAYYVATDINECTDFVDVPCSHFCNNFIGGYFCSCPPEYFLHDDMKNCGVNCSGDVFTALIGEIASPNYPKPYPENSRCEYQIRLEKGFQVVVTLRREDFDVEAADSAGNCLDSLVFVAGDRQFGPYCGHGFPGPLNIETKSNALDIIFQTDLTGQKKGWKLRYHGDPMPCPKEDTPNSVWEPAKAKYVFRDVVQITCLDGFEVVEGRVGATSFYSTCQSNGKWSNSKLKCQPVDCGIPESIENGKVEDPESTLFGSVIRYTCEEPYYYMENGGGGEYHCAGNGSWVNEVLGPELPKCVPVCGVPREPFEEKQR
T1 sequence 2: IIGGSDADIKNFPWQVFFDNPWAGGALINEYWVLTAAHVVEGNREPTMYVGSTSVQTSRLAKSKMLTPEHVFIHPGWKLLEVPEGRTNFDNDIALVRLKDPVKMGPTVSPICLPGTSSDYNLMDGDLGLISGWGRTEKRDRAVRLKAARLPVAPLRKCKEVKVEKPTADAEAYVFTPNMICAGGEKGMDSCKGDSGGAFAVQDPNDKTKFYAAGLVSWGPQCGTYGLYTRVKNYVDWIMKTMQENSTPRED

B1: construct #12: αBb scFab-(G4S)3-αC1s scFab-CM (bispecific antibody)
chain: DIQMTQSPSTLSASVGDRVTITCKASQDVGTAVAWYQKKPGKAPKLLIYWASTRHTGVPDRFSGSGSGTDFTLTISSLQAEDFAVYFCHQHSSNPLTFGQGTKLEIKRTVAAPAVFIFPPSDEQLKSGTASVVCLLKNFYPREAKVQWKVDNALQSGNSQESVTEQDSKDSTYSLSSTLTLSKADYEKHKVYACEVTHQGLSSPVTKSFNRGECGGGGSGGGGSGGGGSGGGGSGGGGSGGGGSGGGGSEVQLVESGGGLVKPGGSLRLSCAASGFTFSNYAMSWVREAPGKRLEWVATISNRGSYTYYPDSVKGRFTISRDNAKNSLYLQMNSLRAEDTALYYCARERPMDYWGQGTLVTVSSASTKGPSVFPLAPCSRSTSESTAALGCLVKDYFPEPVTVSWNSGALTSGVHTFPAVLQSSGLYSLSSVVEVPSSSLGTKTYTCNVDHKPSNTKVDKRVGGGGGSGGGGSGGGGSDIVLTQSPDSLAVSLGERATISCKASQSVDYDGDSYMNWYQEKPGQPPKILIYDASNLESGIPARFSGSGSGTDFTLTISSLEPEDFAIYYCQQSNEDPWTFGGGTKVEIKRTVAAPSVFIFPPSDEQLKSGTASVVCLLNNFYPREAKVQWKVDNALQSGNSQESVTEQDSKDSTYSLSSTLTLSKADYEKHKVYACEVTHQGLSSPVTKSFNRGECGGGGSGGGGSGGGGSGGGGSGGGGSGGGGSGGGGSQVQLVQSGAEVKKPGASVKLSCTASGFNIKDDYIHWVKKAPGQGLEWIGRIDPADGHTKYAPKFQVKVTITADTSTSTAYLELSSLRSEDTAVYYCARYGYGREVFDYWGQGTTVTVSSASTKGPSVFPLAPCSRSTSESTAALGCLVKDYFPEPVTVSWNSGALTSGVHTFPAVLQSSGLYSLSSVVTVPSSSLGTKTYTCNVDHKPSNTKVDKRV
notes: Residues 1-20 were left out as the signal peptide, which is marked by boldface only
B2: parental anti-Bb IgG4 antibody VH6/Vκ7-IgG4v2 (antibody, V domains shown)
VH: EVQLVESGGGLVKPGGSLRLSCAASGFTFSNYAMSWVRQAPGKRLEWVATISNRGSYTYYPDSVKGRFTISRDNAKNSLYLQMNSLRAEDTALYYCARERPMDYWGQGTLVTVSS
VL: DIQMTQSPSTLSASVGDRVTITCKASQDVGTAVAWYQQKPGKAPKLLIYWASTRHTGVPDRFSGSGSGTDFTLTISSLQAEDFAVYFCHQHSSNPLTFGQGTKLEIK
notes: IgG4 (IgG4v2), from U.S. Pat. No. 11,242,382 and WO 2021/216458; full chains of the mAb are not; also called anti-Bb mAb
B3: construct #14: αC1s scFab-(G4S)2-αBb scFv-CM (bispecific antibody)
chain: DIVLTQSPDSLAVSLGERATISCKASQSVDYDGDSYMNWYQEKPGQPPKILIYDASNLESGIPARFSGSGSGTDFTLTISSLEPEDFAIYYCQQSNEDPWTFGGGTKVEIKRTVAAPSVFIFPPSDEQLKSGTASVVCLLNNFYPREAKVQWKVDNALQSGNSQESVTEQDSKDSTYSLSSTLTLSKADYEKHKVYACEVTHQGLSSPVTKSFNRGECGGGGSGGGGSGGGGSGGGGSGGGGSGGGGSGGGGSQVQLVQSGAEVKKPGASVKLSCTASGFNIKDDYIHWVKKAPGQGLEWIGRIDPADGHTKYAPKFQVKVTITADTSTSTAYLELSSLRSEDTAVYYCARYGYGREVFDYWGQGTTVTVSSASTKGPSVFPLAPCSRSTSESTAALGCLVKDYFPEPVTVSWNSGALTSGVHTFPAVLQSSGLYSLSSVVTVPSSSLGTKTYTCNVDHKPSNTKVDKRVGGGGSGGGGSEVQLVESGGGLVKPGGSLRLSCAASGFTFSNYAMSWVREAPGKRLEWVATISNRGSYTYYPDSVKGRFTISRDNAKNSLYLQMNSLRAEDTALYYCARERPMDYWGQGTLVTVSSGGGGSGGGGSGGGGSDIQMTQSPSTLSASVGDRVTITCKASQDVGTAVAWYQKKPGKAPKLLIYWASTRHTGVPDRFSGSGSGTDFTLTISSLQAEDFAVYFCHQHSSNPLTFGQGTKLEIK
notes: as for B1
B4: parental anti-C1s IgG4 antibody VH3/Vκ2 (antibody, V domains shown)
VH: QVQLVQSGAEVKKPGASVKLSCTASGFNIKDDYIHWVKQAPGQGLEWIGRIDPADGHTKYAPKFQVKVTITADTSTSTAYLELSSLRSEDTAVYYCARYGYGREVFDYWGQGTTVTVSS
VL: DIVLTQSPDSLAVSLGERATISCKASQSVDYDGDSYMNWYQQKPGQPPKILIYDASNLESGIPARFSGSGSGTDFTLTISSLEPEDFAIYYCQQSNEDPWTFGGGTKVEIK
notes: IgG4, from WO 2018/071676; full chains of the mAb are not; also called anti-C1s mAb; VH3/VK2

Assays:
[1] = target: T1, human complement C1s enzyme (activated …); assay: cell-based or functional assay
[2] = target: T2, human complement factor Bb (human, UniProt P00751 260-764); assay: cell-based or functional assay
T2 sequence (P00751 260-764): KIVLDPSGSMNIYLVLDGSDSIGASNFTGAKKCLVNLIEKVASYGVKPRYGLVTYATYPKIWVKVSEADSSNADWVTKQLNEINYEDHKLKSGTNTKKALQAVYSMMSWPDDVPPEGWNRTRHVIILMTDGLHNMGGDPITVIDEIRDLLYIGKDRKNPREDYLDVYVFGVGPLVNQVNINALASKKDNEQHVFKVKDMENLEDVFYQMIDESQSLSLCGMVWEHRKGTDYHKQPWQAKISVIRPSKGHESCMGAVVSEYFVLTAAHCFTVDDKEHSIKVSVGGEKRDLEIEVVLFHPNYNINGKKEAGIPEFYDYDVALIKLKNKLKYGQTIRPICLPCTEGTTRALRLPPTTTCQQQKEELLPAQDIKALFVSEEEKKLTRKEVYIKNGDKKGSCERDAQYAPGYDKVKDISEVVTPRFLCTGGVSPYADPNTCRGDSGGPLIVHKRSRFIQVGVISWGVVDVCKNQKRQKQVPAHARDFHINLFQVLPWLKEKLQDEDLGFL

[3] = target: T1, human complement C1s enzyme (activated …); assay: BLI (Octet), biotinylated target on streptavidin sensor; protein purified to >98%
Text: (§1) Bio-layer interferometry (BLI) was used to assess the recombinant proteins' target engagement to and binding affinity for complement C1s enzyme (active C1s or “C1s” herein) and factor Bb (Bb) (Complement Technology, Tyler, TX, USA). C1s and Bb were biotinylated with EZ-Link™ Sulfo-NHS-LC-LC-Biotin (Thermo Fisher, Waltham, MA, USA) according to manufacturer instructions. Biotinylated C1s or Bb was loaded on Octet® Streptavidin (SA) Biosensors (Sartorius, Göttingen, Germany), followed by a concentration range of purified proteins. To assess dual target engagement, biotinylated active C1s or Bb was loaded onto sensors, followed by purified proteins (“first association phase”), followed by the non-captured complement target (Bb or active C1s, non-biotinylated; “second association phase”). The assays were performed at 30° C. using PBS with 0.1% Tween 20 as a diluent (FIG. 3).

[4] = target: T2, human complement factor Bb; assay: as above
Text: as §1

[5] = target: T1, human complement C1s enzyme (activated …); assay: cell-based or functional assay; remark: listed apart in the source
[6] = target: T2, human complement factor Bb; assay: cell-based or functional assay; remark: listed apart in the source
[7] = target: T1, human complement C1s enzyme (activated …); assay: BLI (Octet), biotinylated target on streptavidin sensor; partially purified protein
Text: as §1
(§2) The third expression construct, construct #9 (FIGS. 2B and 21), is composed of a bidirectional minCBA promoter driving expression of separate transcripts encoding human codon-optimized αBb scFab or αC1s scFab [αC1s scFab+αBb scFab], each followed by a bGH poly (A) signal.

[8] = target: T2, human complement factor Bb; assay: as above
Text: as §1, §2

[9] = target: T1, human complement C1s enzyme (activated …); assay: BLI (Octet), biotinylated target on streptavidin sensor
Text: as §1

[10] = target: T2, human complement factor Bb; assay: as above
Text: as §1

[11] = target: T1, human complement C1s enzyme (activated …); assay: cell-based or functional assay; remark: listed apart in the source
[12] = target: T2, human complement factor Bb; assay: cell-based or functional assay; remark: listed apart in the source
[13] = target: T1, human complement C1s enzyme (activated …); assay: cell-based or functional assay; remark: listed apart in the source
[14] = target: T2, human complement factor Bb; assay: cell-based or functional assay; remark: listed apart in the source
[15] = target: T2, human complement factor Bb; assay: cell-based or functional assay; remark: listed apart in the source
[16] = target: T2, human complement factor Bb; assay: SPR
[17] = target: T1, human complement C1s enzyme (activated …); assay: cell-based or functional assay; remark: listed apart in the source
[18] = target: T1, human complement C1s enzyme (activated …); assay: SPR

Row | Binder | IC50 CP (Wieslab) [1] [nM] | IC50 AP (Wieslab) [2] [nM] | Kd [3] [nM] | Kd [4] [nM] | Wieslab CP IC50, fold of purified anti-C1s Fab [5] [fold] | Wieslab AP IC50, fold of purified anti-Bb Fab [6] [fold] | Kd [7] [nM] | Kd [8] [nM] | Kd [9] [nM] | koff [9] [s⁻¹] | kon [9] [M⁻¹ s⁻¹] | Kd [10] [nM] | koff [10] [s⁻¹] | kon [10] [M⁻¹ s⁻¹] | IC50 CP Wieslab EIA [11] [nM] | IC50 AP Wieslab EIA [12] [nM] | CP IC50 (Wieslab) [13] [nM] | AP IC50 (Wieslab) [14] [nM] | other results
1 | B1 | 84.4 | 702 | 5.4 | 1.5 | ~14 | ~7 | 3.6 | 6.6 | 3.6 | 0.00065 | 180000 | 6.6 | 0.00055 | 80000 | 10.4 | 428 | 84.4 | 702 | –
2 | B2 | – | – | – | – | – | – | – | – | – | – | – | – | – | – | – | – | – | – | Wieslab alternative pathway IC50 [15]: 190 nM; Kd [16]: 7.3 nM
3 | B3 | 38.6 | 551 | 1.3 | 4.2 | ~6 | ~6 | 1.4 | 2.5 | 1.4 | 0.00049 | 360000 | 2.5 | 0.00017 | 70000 | 5.9 | 347 | 38.6 | 551 | –
4 | B4 | – | – | – | – | – | – | – | – | – | – | – | – | – | – | – | – | – | – | Wieslab classical pathway IC50 [17]: 22 nM; Kd [18]: 1.5 nM

From US20240401082A1 (Sanofi, published 2024)
